Assay results taken from US20090029005A1.
Several values for one entry are separate records, joined by “and”; a condition that tells them apart may be missing. Equal values may be shown once.

How the values were obtained:
[1] = molecular target: Angiotensin-I Converting Enzyme (ACE); assay: cell-based or functional assay
[2] = molecular target: Angiotensin-I Converting Enzyme; assay: cell-based or functional assay

Sequence of Ovotransferrin (TRFE_CHICK), not hydrolysed and not digested (P02789 20-705 limits assumed): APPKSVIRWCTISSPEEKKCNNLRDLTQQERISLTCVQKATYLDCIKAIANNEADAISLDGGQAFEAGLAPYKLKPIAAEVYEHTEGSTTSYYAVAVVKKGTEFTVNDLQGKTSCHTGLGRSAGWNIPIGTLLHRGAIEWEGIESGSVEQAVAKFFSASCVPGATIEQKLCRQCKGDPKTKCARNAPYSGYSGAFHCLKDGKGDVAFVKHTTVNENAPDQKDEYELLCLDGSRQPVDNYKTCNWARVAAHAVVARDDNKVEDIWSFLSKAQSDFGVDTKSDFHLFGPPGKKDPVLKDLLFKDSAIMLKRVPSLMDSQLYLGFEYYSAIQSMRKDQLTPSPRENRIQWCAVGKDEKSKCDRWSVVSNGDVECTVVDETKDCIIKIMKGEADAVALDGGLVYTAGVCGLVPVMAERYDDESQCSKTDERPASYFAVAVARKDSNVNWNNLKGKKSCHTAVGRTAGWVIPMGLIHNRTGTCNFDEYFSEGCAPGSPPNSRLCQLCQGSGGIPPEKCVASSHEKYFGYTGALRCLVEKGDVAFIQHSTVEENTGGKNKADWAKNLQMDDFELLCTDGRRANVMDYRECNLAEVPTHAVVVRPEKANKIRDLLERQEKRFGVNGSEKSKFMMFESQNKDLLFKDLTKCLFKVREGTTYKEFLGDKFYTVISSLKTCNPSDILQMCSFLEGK

| ACE inhibition (% inhibition) at 0.5 mg/ml [1] | inhibition (%) at 0.0625 mg/ml [1] | inhibition (%) at 0.125 mg/ml [1] | inhibition (%) at 0.25 mg/ml [1] | inhibition (%) at 0.5 mg/ml [1] | inhibition (%) at 1 mg/ml [1] | inhibition (%) at 2 mg/ml [1] | Substance | further results |
| --- | --- | --- | --- | --- | --- | --- | --- | --- |
| 56% and 55% and 58% | 29.2% and 27.3% | 38% and 35.1% | 49.7% and 49.5% | 54.7% and 58% | – | 102% and 123% | Lysozyme/PEM hydrolysate | – |
| – | 3.7% | 16.3% | 23.5% | 45.8% | 55.9% | 82.5% | Ovalbumin/Newlase F hydrolysate | – |
| – | 27.9% and 20% | 40.3% and 36.2% | 45% and 33.9% | 62.8% and 47.2% | 77.9% and 78.4% | – | EggWhite 1101/Promod 258P hydrolysate | – |
| 62% and 58% and 66% | 18.4% and -1% | 40% and 18.8% | 41.1% and 45.1% | 57.7% and 66.3% | 85.2% and 86.2% | 121% and 104% | Ovotransferrin/Promod 258P hydrolysate | – |
| – | 15% and 22.4% | 26.6% and 37% | 41.3% and 62.7% | – | – | 105% and 89.9% | Egg yolk/Protex 6L hydrolysate | – |
| – | – | – | 27.6% and 44.3% | – | 75.7% and 59.9% | 96.9% and 78.1% | Egg yolk/PTN hydrolysate | – |
| 50% and 55% and 45% | – | 19.7% and 16.9% | 43.8% and 21% | 55.3% and 44.7% | 65.5% and 50.9% | – | Ovomucin/PTN hydrolysate | – |
| 57% and 51% | 15.5% and 21.6% | 21.7% and 18.2% | 24.1% and 36.1% | 51.3% and 57.3% | 69.5% and 80% | – | Egg yolk/Newlase F hydrolysate | – |
| 71% and 74% and 69% | 42.4% and 30.9% | 42.2% and 44.6% | 65.8% and 58.3% | 73.9% and 68.7% | 83% and 83.5% | – | Lysozyme/Protex 6L hydrolysate | – |
| 59% and 69% and 49% | 24.9% and 5.1% | 31.4% and 16.3% | 47.8% and 30.5% | 68.5% and 49% | 87.6% and 65% | 90.8% and 65.8% | Ovomucin/Protex 6L hydrolysate | – |
| 52% and 62% and 42% | 18.9% and 6.4% | – | – | 62.4% and 42% | 75.7% and 75.8% | 79.7% and 103% | Lysozyme/PTN hydrolysate | – |
| 55% and 52% and 57% | -19.4% and -10.7% | – | 9.8% and 31.8% | 52.4% and 56.6% | 69.1% and 73.8% | – | Ovotransferrin/PEM hydrolysate | – |
| – | 16.3% and 4.9% | 24.7% and 19% | 33.2% and 41.7% | 47% and 49.2% | 58.4% and 66% | 60.2% and 71.8% | EggWhite 1102/Protex 6L hydrolysate | – |
| – | -6.8% and 0% | 0% and 1.6% | 17.4% and 13.4% | 31.1% and 24.6% | 18.2% and 41.3% | 87.8% and 64.4% | Ovalbumin hydrolysate (enzyme of the column not resolvable: PEM, Newlase F or Alcalase) | – |
| – | 17% and 11.9% | 20.2% and 23% | 31.3% and 33.3% | 50.6% and 44.4% | 63.2% and 62.2% | – | EggWhite 1101/Protex 6L hydrolysate | – |

The remaining lines, values behind:

| Substance | ACE inhibition (% inhibition) at 0.5 mg/ml [1] | inhibition (%) at 0.0625 mg/ml [1] | inhibition (%) at 0.125 mg/ml [1] | inhibition (%) at 0.25 mg/ml [1] | inhibition (%) at 0.5 mg/ml [1] | inhibition (%) at 1 mg/ml [1] | inhibition (%) at 2 mg/ml [1] | further results |
| --- | --- | --- | --- | --- | --- | --- | --- | --- |
| Ovalbumin/Promod 258P hydrolysate | 53% and 49% and 58% | 14% and 8.7% | 40.7% and 23.2% | 37.3% and 33.8% | 48.6% and 57.6% | 87.5% and 67% | 103% and 78.2% | – |
| Egg yolk/Alcalase hydrolysate | 68% and 76% and 61% | 30.9% and 6.5% | 45.7% and 25.1% | 59.1% and 41.9% | 75.8% and 61% | – | 100% | – |
| Lysozyme (Lysozyme C, LYC_CHICK), not hydrolysed and not digested (from UniProt P00698 19-147) (enzyme) | – | – | – | – | – | – | – | ACE inhibition (%) at 0.167 mg/ml, Hip-His-Leu/TNBS microtiter assay [1]: -4.7% |
| Ovotransferrin/Newlase F hydrolysate | 70% and 71% and 69% | 26.9% and 28.7% | 33.7% and 50.9% | 58.6% and 51.6% | 70.5% and 69.1% | 96.1% and 83.1% | – | inhibition (%) at 2 mg/ml (*Absorption above 3) [1]: 64.3% and 46.8% |
| Ovomucin/Alcalase hydrolysate | 56% and 57% and 55% | 24% and 22% | 25.5% and 33.2% | 37.1% and 43.8% | 57.3% and 55.2% | 67.2% and 69.9% | 81.7% and 86% | ACE activity IC50; total hydrolysis time 11.5 hours (batch for animal study) [1]: 230 µg/mL; ACE inhibition IC50; hydrolysis 4 h, 2% enzyme, DH 0% [1]: > 2000 µg/mL; ACE inhibition IC50; hydrolysis 5 h, 4% enzyme, DH 5.0% [1]: 760 µg/mL; ACE inhibition IC50; hydrolysis 5 h, 4% enzyme, DH 12.0 [1]: 540 µg/mL; ACE inhibition IC50; hydrolysis 6 h, 4% enzyme, DH 7.7% [1]: 660 µg/mL; ACE inhibition IC50; hydrolysis 7 h, 6% enzyme, DH 12.9% [1]: 450 µg/mL; ACE inhibition IC50; hydrolysis 7.5 h, 6% enzyme, DH 15.0% [1]: 430 µg/mL; ACE inhibition IC50; hydrolysis 8 h, 6% enzyme, DH 21.7 [1]: 390 µg/mL; ACE inhibition IC50; hydrolysis 10.5 h, 8% enzyme, DH 21.2 [1]: 250 µg/mL; ACE inhibition IC50; hydrolysis 10.5 h, 8% enzyme, DH 23.9 [1]: 210 µg/mL; ACE inhibition IC50; hydrolysis 13.5 h, 10% enzyme, DH 22.0 [1]: 180 µg/mL; ACE inhibition IC50; hydrolysis 16.5 h, 12% enzyme, DH 21.1 [1]: 180 µg/mL |
| EggWhite 1102/Alcalase hydrolysate | – | 18.2% and 2.4% | 36.4% and 16.7% | 43% and 23.3% | 58.8% and 48.1% | 76.9% and 67% | 86.3% and 65.8% | – |
| Ovotransferrin/Protex 6L hydrolysate | 59% and 60% | 13.7% and 12% | 30.6% and 19.1% | 44.4% and 34.4% | 60.2% and 58.6% | 76.8% and 70.2% | 97.3% and 88% | – |
| Egg White/Alcalase (LS 250903) | – | – | – | – | – | – | – | IC50 (mg/mL), ACE inhibition (Hip-His-Leu assay) [2]: 0.46 mg/mL |
| Ovalbumin/PEM hydrolysate | – | – | – | – | 51.4% and 27.7% | 57.3% and 36.3% | 61% and 39.1% | – |
| Ovalbumin/Alcalase hydrolysate | – | 23.4% and 3.1% | 7.3% and 16.2% | – | – | – | 89.2% and 74.8% | – |
| Lysozyme/Alcalase hydrolysate | 70% and 82% and 58% | 35.2% and 14.3% | – | – | 82.1% and 58.1% | 81.3% and 79.9% | 126% and 102% | – |
| EggWhite 1102/Promod 258P hydrolysate | – | – | – | 42.8% and 19.5% | 62% and 42.7% | 75% and 61.9% | 91.3% and 76.8% | – |
| Ovomucin, not hydrolysed and not digested | – | – | – | – | – | – | – | ACE inhibition (%) at 0.019 mg/ml, Hip-His-Leu/TNBS microtiter assay [1]: -0.4%; ACE inhibition (%) at 0.056 mg/ml, Hip-His-Leu/TNBS microtiter assay [1]: 5.2%; ACE inhibition (%) at 0.167 mg/ml, Hip-His-Leu/TNBS microtiter assay [1]: 2.2%; ACE inhibition (%) at 0.500 mg/ml, Hip-His-Leu/TNBS microtiter assay [1]: 2.1% |
| Ovomucin/Newlase F hydrolysate | – | -13.7% and 7.8% | – | 30.6% and 18.6% | 42.5% and 31.3% | 45.7% and 49.2% | 59.6% and 49.2% | – |
| Ovomucin/PEM hydrolysate | – | 25.9% and 5.5% | 13.3% and 9.1% | 41.1% and 19.6% and 36.1% | 66.3% and 43.1% and 48.6% | 51.3% and 62.3% and 66% | 73.1% and 78.1% and 88% | – |
| Egg yolk/PEM hydrolysate | 58% and 62% and 53% | 15.4% and 25.4% | 28.8% and 52.8% | 45.3% and 36.6% | 62.1% and 52.9% | 69.8% and 64.6% | 99.7% and 96.6% | – |
| Ovotransferrin/PTN hydrolysate | 64% and 68% and 60% | – | 28.3% and 37.9% | 51% and 49.8% | 67.8% and 59.9% | 80.3% and 84.3% | – | – |
| EggWhite 1101/Alcalase hydrolysate | – | 19.6% and 10.7% | 34.2% and 12.8% | 46.5% and 32.1% | 63.1% and 39.9% | 66.5% and 71.7% | – | – |
| Ovotransferrin (TRFE_CHICK), not hydrolysed and not digested (from UniProt P02789 20-705) | – | – | – | – | – | – | – | ACE inhibition (%) at 0.019 mg/ml, Hip-His-Leu/TNBS microtiter assay [1]: 0.7%; ACE inhibition (%) at 0.056 mg/ml, Hip-His-Leu/TNBS microtiter assay [1]: -4.1%; ACE inhibition (%) at 0.167 mg/ml, Hip-His-Leu/TNBS microtiter assay [1]: 0.7%; ACE inhibition (%) at 0.500 mg/ml, Hip-His-Leu/TNBS microtiter assay [1]: -0.3% |
